Assay results published in the supplement of paper PMC9170038.

Test system: K4 kissing-loop RNA reporter
Experiment: apparent KD of K4 kissing-loop reporter; higher = weaker reporter binding
Conditions: Eterna round: R107
Procedure: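 RNA-MaP round R107: designed RNA switches with theophylline, tryptophan, arginine or FMN aptamers are transcribed on-chip within common flanks. They are titrated with a labelled K4 kissing-loop RNA reporter in RNA-MaP buffer (100 mM Tris pH 7.5, 80 mM KCl, 4 mM MgCl2), without ligand or with the indicated ligand. Median apparent KD per design.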

[1] = input ligand: theophylline 20 uM
[2] = input ligand: tryptophan 2.4 mM
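Note: bound reporter read as fluorescence of individual clusters on recovered sequencing chips by microscopy, with normalized cluster intensities fitted with a binding model.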

| Sequence | apparent KD of K4 kissing-loop reporter (input ligand: FMN 200 uM) [nM] | apparent KD of K4 kissing-loop reporter (input ligand: arginine 13.2 mM) [nM] | apparent KD of K4 kissing-loop reporter (input ligand: none) [nM] | apparent KD of K4 kissing-loop reporter [1] [nM] | apparent KD of K4 kissing-loop reporter [2] [nM] |
| --- | --- | --- | --- | --- | --- |
| CGGAUGUAGUGAUGUUAUAUUAGAUGUAGACGAGGACCGGUACGGCCGCCACUCGUAACGGCUGCUAGCGCGUUGCGAGGUGUGC [ExTryptoA.Cl] | 642 | 611 | 721 | 570 | 510 |
| CGGCGGAGUGAUGUUCCACCUACUGCGGAUACCAGCUUUGCCAAAGGCCCUUGGCAGCCGCACGGCUCAGUGAUGUUGGGUCGCG [Same State Theophylline A G11] | 225 | 179 | 244 | 223 | 199 |
| CGGUACGUCGCAGGAUAUGUAAAUGUAAGUGAUGUUUACAUACCAUGCUGGCGAAAGCCAGCAUGGACAGAAGGGCGACGUACCG | 111 | 354 | 470 | 328 | 506 |
| CGUGAGUGCCGUCAGUCAUCGGUCCAUGCACGAGGACCGGUACGGCCGCCACUCGAGCGUGGCAGUGAUGUUGCCAGCGCACUAA [KL-XTryp-A12] | 117 | 98.7 | 103 | 112 | 89.4 |
| CGUGGUGCUCGCCAGCUGUGCGAGCGGUGGGAGGAUAUGUCGCGAGACAGAAGGCCCAGUGAUGUUGGGCAGGCUCGUAGAUCAA [Orbemaed] | 152 | 118 | 121 | 133 | 116 |
| CGUUCUUCUGUCGAUACCAGCUUCAGUUGGCGGCCAGUGAUGUUGGUAUCGCCGAUGCCAAGCCCUUGGCAGCGACAUGAGACCC [Onrire] | 171 | 180 | 182 | 130 | 168 |
| CGUUGUGAUGCUUGUGCUCAUACCGGAGAUACCAGUACCAUCACUUACCCUUGGCAGCUCAGUAAAGACAAGUGAUGUUUGUCAC [theeternabot_sameState_KL_Theo_A_38] | 684 | 528 | 805 | 560 | 502 |
| CUACAUGCACAGGAGUGAUGUUUAUGGGCUCGAGGACCGGUACGGCCGCCACUCGUUAUGGCACGCAGUAGAUAUAGGCGAGGAA [theeternabot_sameState_KL_Trp_A_41] | 615 | 381 | 605 | 448 | 871 |
| CUAUAUAGUGAUGUUAUAUAGAUAACAGAUACCAGCUAGAAAACUAGCCCUUGGCAGCUGAUAAGGGAAAGUAUAAUUGUGUAAA [AstroSTH-A#DifdesignED20.18] | 82.1 | 73 | 76 | 64.8 | 73.7 |
| CUCCAACUUGAUGAUACCAGAGAGGAGGAAGUGAUGUUGACUCCGGCUACAUACUGGCGACUCCCUUGGCAGCAUUACGUCAUCC [theeternabot_sameState_KL_Theo_B_3] | 389 | 265 | 318 | 417 | 353 |
| CUCGAGUGAUGUUCGAUUAUGUAUACAGAUACCAGUGAAUUUUAACACCCUUGGCAGCUGGUAGAAUCAUUGUAAUUUUAACUAG [JR_ExcTheophyA_Sub001] | 175 | 260 | 218 | 254 | 150 |
| CUGACGCUGAUACGGUGGCCGAUGGUCGUGCGAGGACCGGUACGGCCGCCACUCGCAUGAGUGAUGUUCAUGUGUCGUCGUCGUC [#06 K4 Tryptophan A Exclusion] | 135 | 115 | 130 | 106 | 142 |
| CUGCCGUGCCAUGGGCCAGUGAUGUUGGAACGAGGACCGGUACGGCCGCCACUCGCUUAGCGUCAAAGGCGUCCCGAAUAGAAAG [theeternabot_exclusion_KL_Trp_A_14] | 374 | 230 | 340 | 317 | 374 |
| CUGCCGUUUACAGAUACCAGACUAAUAACGGCAGCACAGAAUGUGAGUGAUGUUCGCAUAGUCCCUUGGCAGCUGUAUAACAGUA [Theo B Ex t3] | 219 | 199 | 227 | 287 | 191 |
| CUUAAGACAUGAGUGAUGUUCAUGUCCGAAGGAGCGUGCGAAAGCACAGGUAGGUCGCGGACGUGAGUGAUGUUCAUGUAAGCGA [KL-XArg-A11 #analogue] | 159 | 125 | 156 | 154 | 140 |
| CUUAUUUCUCGCUAUGAUGUUAGUUGAGCCAAGGAUAUUAAUGAAUUAAGAAGGUGGGUUUUUAAGUGAUGUUUUGAGACUGGCA [theeternabot_exclusion_KL_FMN_A_27] | 793 | 718 | 863 | 727 | 568 |
| CUUUUACAGUCGGCCGCCACUGACAGCACUUCAAAGACAGUAUAAGGGUAGUGAUGUUACUUUAUCAGGACCGGGACUACCUAAC [theeternabot_sameState_KL_Trp_B_3] | 215 | 121 | 205 | 279 | 358 |
| GAAAUCACGGAUGAUACCAGCCAGAACUCUCACAGUGAUGUUGUGCUUAAAUGAUUAGGAGGCCCUUGGCAGCAUACGCUAAUUU [theeternabot_sameState_KL_Theo_B_36] | 324 | 267 | 313 | 305 | 226 |
| GAACGAGUGAUGUUCGUUGGCAUGCAUUCCGAGGAUAUGGGAUUAGCCAGAAGGCGGAAUCAGUCUUCGAGUGAUGUUCGAAGAU [Same State FMN A GF 12] | 112 | 104 | 116 | 104 | 111 |
| GAAUAAUAACAUGAGUGAUGUUCAUGUAAACGAGGACCGGUACGGCCGCCACUCGUUUCUCAUGUAAGCCGUACCAAUAACAAUA [KL-XTryp-A5 #analogue] | 146 | 142 | 151 | 147 | 237 |
| GAAUAAUAUGUACCAGUGAUGUUGGUACAACGAGGACCGGUACGGCCGCCACUCGGAUACGAGUGGAUACAUCACUGACCAUUCG [(H1)-(H2)-(Trp1)-(Trp2)-(T)'-(H)'-(T)''_Design9] | 326 | 308 | 368 | 413 | 252 |
